In test [1] the target is RhoA (UniProt Q9QUI0). Kind of test: anti-RhoGDI1 co-IP from cytosolic fraction. The conditions noted are these: reference: unstimulated acini; sites S96.
Test [2] deals with RhoA (UniProt Q9QUI0). Kind of test: anti-RhoGDI1 co-IP from acinar lysate. The conditions noted are these: reference: unstimulated acini; sites S96.

The substance “RhoGDI1 (endogenous) (from UniProt Q99PT1) CCK 300 pM, 5 min” registered a percent of reference in test [1] of 42%.
Substance “RhoGDI1 (endogenous) (from UniProt Q99PT1) PMA 500 nM” had a percent of reference in test [2] of 37%.
